Laboratory results: the supplement of paper PMC10724198
± gives the standard deviation of the averaged measurements.

Tested on: Saccharomyces cerevisiae
Assay: protein stability index of tFT-peptide fusion (C-terminal peptide) (PSI (0-1 scale)); higher = more stable (slower turnover)
Settings: genetic background: cdc53-1; temperature: 37 C
Procedure: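 MPS profiling in S. cerevisiae of the tFT-X12 degron library: putative degron peptides plus stable controls, 12 aa, fused to the C-terminus of a sfGFP-mCherry timer. Cells are FACS-sorted into 8 mCherry/sfGFP bins and deep-sequenced. PSI runs from 0 (unstable) to 1 (stable). Backgrounds are wild type, das1Δ and doa10Δ at 30 °C, and wild type, das1Δ, cdc34-1 and cdc53-1 at 37 °C; 2-3 technical replicates each.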
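Also: PSI is a weighted mean of sequencing reads over stability bins, variants kept only with over 10 reads, mCherry proximal and sfGFP distal, peptide attached via GGGS linker.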

Point of comparison: VCSRWFFVFVVR, protein stability index 0.424 ± 0.043. Against it:
- TSFLHLFVAAII — higher, 0.632 ± 0.045
- TSLPPSPPPSPT — higher, 0.713 ± 0.17
- TSPYTSFAHTSL — higher, 0.739 ± 0.016
- VAFGVASGWCWF — higher, 0.8066 ± 0.0046
- VAFILVVCKGIG — lower, 0.2776 ± 0.0022
- VAWWVCIRSCCG — higher, 0.55 ± 0.057
- VCCSSVSLLVFA — lower, 0.363 ± 0.01
- VCGYGFAVPCYT — higher, 0.549 ± 0.021
- VCILLVAWCLMG — lower, 0.289 ± 0.049
- VCLLGWGVRLVS — higher, 0.7294 ± 0.0045
- VCMHIVLLAASP — lower, 0.317 ± 0.017
- VCVFFRLCIVWY — lower, 0.101 ± 0.0031
- VDGVSFFVVLLC — higher, 0.503 ± 0.0085
- VDSTCLLITLLA — higher, 0.4893 ± 0.0016
- VEIKSKRMLVVI — higher, 0.538 ± 0.039
- VEQLLYIKATNV — higher, 0.7025 ± 0.0067
- VFDFVFHLRFVV — within error, 0.419 ± 0.0096
- VFFCLFVLFLSG — within error, 0.397 ± 0.0068
- VFFGLYLVTFTS — lower, 0.302 ± 0.045
- VFFHFFVCWRFV — lower, 0.231 ± 0.013
- VFFLLSVYMVMM — lower, 0.29 ± 0.075
- VFFTSLPPLLRA — within error, 0.4543 ± 0.0034
- VFIVVEFRLSLY — lower, 0.243 ± 0.074
- VFKLGWVLCVLL — within error, 0.386 ± 0.0098
- VFLACSMTGGDA — lower, 0.326 ± 0.022
- VFLDCCLRVFVD — within error, 0.379 ± 0.028
- VFLLFFFGLFVF — within error, 0.385 ± 0.0091
- VFLPVMVFFTFS — within error, 0.457 ± 0.066
- VFRLLLFFVFVF — lower, 0.183 ± 0.068
- VGAVGVCILFVW — lower, 0.356 ± 0.014
- VGFYGRWVCVAC — within error, 0.462 ± 0.024
- VGGSRGARLGVG — within error, 0.448 ± 0.014
- VGRANLSVIRKV — higher, 0.733 ± 0.016
- VGSSSGRLLYLC — higher, 0.73 ± 0.0093
- VGTIVLTCIEVN — lower, 0.0586 ± 0.013
- VGVVLWVWGLGD — higher, 0.6012 ± 0.0037
- VGVVVVGDVLVW — within error, 0.375 ± 0.02
- VIQNKKKNKITS — higher, 0.6883 ± 0.0049
- VIYYVRVGLVLS — lower, 0.115 ± 0.053
- VLARGFHCMYFC — higher, 0.736 ± 0.022
- VLGPRFCFVCHA — higher, 0.604 ± 0.03
- VLLSSSLVFLIS — higher, 0.6439 ± 0.0011
- VLVCYFCRYISH — higher, 0.579 ± 0.052
- VLVTFFIRSGVS — higher, 0.54 ± 0.0081
- VMFCRFPLRFGC — higher, 0.726 ± 0.03
- VPTRRRGNRRPA — higher, 0.7259 ± 0.0048
- VQVLVAIMDGRM — within error, 0.4143 ± 0.0016
- VRFLSLNVLFFC — higher, 0.625 ± 0.022
- VRGWLAYLRWII — higher, 0.638 ± 0.026
- VSFGELGVEVVG — higher, 0.735 ± 0.041
- VSGEWSFLVRVQ — higher, 0.573 ± 0.0061
- VSISLCVLCPVF — lower, 0.319 ± 0.016
- VSLSWFSCCFVG — higher, 0.556 ± 0.03
- VSVFSLFLFLRV — lower, 0.194 ± 0.022
- VSVVLKTQRVVC — higher, 0.607 ± 0.008
- VTFWISLVYVLV — lower, 0.264 ± 0.022
- VTVWVFVFLRGL — within error, 0.393 ± 0.015
- VVACCVVFWVLP — within error, 0.469 ± 0.042
- VVCLCEYRLHIF — lower, 0.274 ± 0.031

Same assay, conditions: genetic background: das1 deletion; temperature: 30 C

Point of comparison: VIYYVRVGLVLS, protein stability index 0.119 ± 0.03. Against it:
- TSFLHLFVAAII — higher, 0.499 ± 0.02
- TSLPPSPPPSPT — higher, 0.392 ± 0.044
- TSPYTSFAHTSL — higher, 0.677 ± 0.031
- VAFGVASGWCWF — higher, 0.687 ± 0.016
- VAFILVVCKGIG — higher, 0.175 ± 0.016
- VAWWVCIRSCCG — higher, 0.427 ± 0.027
- VCCSSVSLLVFA — higher, 0.267 ± 0.028
- VCGYGFAVPCYT — higher, 0.37 ± 0.026
- VCILLVAWCLMG — higher, 0.24 ± 0.022
- VCLLGWGVRLVS — higher, 0.609 ± 0.038
- VCMHIVLLAASP — higher, 0.187 ± 0.0068
- VCSRWFFVFVVR — higher, 0.331 ± 0.035
- VCVFFRLCIVWY — within error, 0.127 ± 0.017
- VDGVSFFVVLLC — higher, 0.343 ± 0.029
- VDSTCLLITLLA — higher, 0.348 ± 0.036
- VEIKSKRMLVVI — higher, 0.426 ± 0.028
- VEQLLYIKATNV — higher, 0.6088 ± 0.0057
- VFDFVFHLRFVV — higher, 0.427 ± 0.028
- VFFCLFVLFLSG — higher, 0.264 ± 0.043
- VFFGLYLVTFTS — higher, 0.222 ± 0.026
- VFFHFFVCWRFV — higher, 0.25 ± 0.032
- VFFLLSVYMVMM — within error, 0.195 ± 0.055
- VFFTSLPPLLRA — higher, 0.372 ± 0.021
- VFIVVEFRLSLY — within error, 0.174 ± 0.038
- VFKLGWVLCVLL — higher, 0.286 ± 0.01
- VFLACSMTGGDA — higher, 0.373 ± 0.067
- VFLDCCLRVFVD — higher, 0.228 ± 0.032
- VFLLFFFGLFVF — higher, 0.295 ± 0.037
- VFLPVMVFFTFS — higher, 0.277 ± 0.03
- VFRLLLFFVFVF — higher, 0.287 ± 0.046
- VGAVGVCILFVW — higher, 0.242 ± 0.044
- VGFYGRWVCVAC — higher, 0.287 ± 0.015
- VGGSRGARLGVG — higher, 0.389 ± 0.011
- VGRANLSVIRKV — higher, 0.636 ± 0.014
- VGSSSGRLLYLC — higher, 0.633 ± 0.0066
- VGTIVLTCIEVN — higher, 0.191 ± 0.022
- VGVVLWVWGLGD — higher, 0.409 ± 0.033
- VGVVVVGDVLVW — higher, 0.279 ± 0.03
- VIQNKKKNKITS — higher, 0.642 ± 0.013
- VLARGFHCMYFC — higher, 0.621 ± 0.022
- VLGPRFCFVCHA — higher, 0.444 ± 0.039
- VLLSSSLVFLIS — higher, 0.522 ± 0.016
- VLVCYFCRYISH — higher, 0.413 ± 0.046
- VLVTFFIRSGVS — higher, 0.356 ± 0.042
- VMFCRFPLRFGC — higher, 0.631 ± 0.0071
- VPTRRRGNRRPA — higher, 0.639 ± 0.021
- VQVLVAIMDGRM — higher, 0.371 ± 0.031
- VRFLSLNVLFFC — higher, 0.482 ± 0.025
- VRGWLAYLRWII — higher, 0.631 ± 0.027
- VSFGELGVEVVG — higher, 0.529 ± 0.017
- VSGEWSFLVRVQ — higher, 0.452 ± 0.025
- VSISLCVLCPVF — higher, 0.258 ± 0.024
- VSLSWFSCCFVG — higher, 0.439 ± 0.026
- VSVFSLFLFLRV — higher, 0.357 ± 0.03
- VSVVLKTQRVVC — higher, 0.432 ± 0.039
- VTFWISLVYVLV — higher, 0.18 ± 0.023
- VTVWVFVFLRGL — higher, 0.315 ± 0.029
- VVACCVVFWVLP — higher, 0.27 ± 0.028
- VVCLCEYRLHIF — higher, 0.214 ± 0.034
